Tests used:
[1] = molecular target: eel LH/CGR-N312Q (eel)
[2] = molecular target: eel lutropin/chorionic gonadotropin receptor, wild type (eel)
[3] = molecular target: eel LH/CGR-N49Q (eel)
[4] = molecular target: eel LH/CGR-N306Q (eel)
[5] = molecular target: eel LH/CGR-N201Q (eel)
[6] = molecular target: eel LH/CGR-N312Q (eel); remark: listed apart in the source
[7] = molecular target: eel lutropin/chorionic gonadotropin receptor, wild type (eel); remark: listed apart in the source
[8] = molecular target: eel LH/CGR-N49Q (eel); remark: listed apart in the source
[9] = molecular target: eel LH/CGR-N306Q (eel); remark: listed apart in the source

EC50 of the cAMP response (HTRF), transfected CHO-K1 cells, rec-eel LH for 30 min [1]: 0.235 µg/mL
EC50 of the cAMP response (HTRF), transfected CHO-K1 cells, rec-eel LH for 30 min [2]: 0.19 µg/mL
EC50 of the cAMP response (HTRF), transfected CHO-K1 cells, rec-eel LH for 30 min [3]: 0.215 µg/mL
EC50 of the cAMP response (HTRF), transfected CHO-K1 cells, rec-eel LH for 30 min [4]: 0.233 µg/mL
pERK1/2 activity (HTRF), transfected HEK-293 cells, rec-eel LH 250 ng/mL for 0-30 min; peak at 5 min, fold over the basal response of LH/CGR-wt [5]: 2.6 fold
pERK1/2 activity (HTRF), transfected HEK-293 cells, rec-eel LH 250 ng/mL for 0-30 min; peak at 5 min, fold over the basal response of LH/CGR-wt [6]: 3.7 fold
pERK1/2 activity (HTRF), transfected HEK-293 cells, rec-eel LH 250 ng/mL for 0-30 min; peak at 5 min, fold over the basal response [7]: 3.97 fold
pERK1/2 activity (HTRF), transfected HEK-293 cells, rec-eel LH 250 ng/mL for 0-30 min; peak at 5 min, fold over the basal response of LH/CGR-wt [8]: 3.3 fold
pERK1/2 activity (HTRF), transfected HEK-293 cells, rec-eel LH 250 ng/mL for 0-30 min; peak at 5 min, fold over the basal response of LH/CGR-wt [9]: 3.1 fold
Substance: recombinant eel LH (ligand)

Source: article PMC12110046
